Laboratory results taken from patent publication US20110165605A1.
Substitutions are numbered along the chain they refer to.

T1: α-lactalbumin (Sigma Co.)
T1 sequence (P00711 20-142, species assumed, looked up): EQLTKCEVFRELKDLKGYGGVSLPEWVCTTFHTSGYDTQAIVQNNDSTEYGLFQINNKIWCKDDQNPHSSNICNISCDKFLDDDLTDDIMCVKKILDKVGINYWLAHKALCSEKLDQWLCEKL

B1: mature form of wild-type protein-glutaminase derived from the Chryseobacterium proteolyticum 9670 strain (protein)
chain: LASVIPDVATLNSLFNQIKNQSCGTSTASSPCITFRYPVDGCYARAHKMRQILMNNGYDCEKQFVYGNLKASTGTCCVAWSYHVAILVSYKNASGVTEKRIIDPSLFSSGPVTDTAWRNACVNTSCGSASVSSYANTAGNVYYRSPSNSYLYDNNLINTNCVLTKFSLLSGCSPSPAPDVSSCGF
B2: mature form of the protein-glutaminase mutant Tyr82Ser (protein)
chain: B1 chain with Y82S

Legend:
[1] = biological target: T1, α-lactalbumin (Sigma Co.)
[2] = biological target: separated soybean protein (Fuji Pro F, FUJI OIL CO., LTD.)
[3] = biological target: wheat gluten (Viten, ROQUETTE Co.)
[4] = biological target: β-lactoglobulin (Sigma Co.)
[5] = biological target: casein (Wako Pure Chemical Industries, Ltd.)
[6] = biological target: separated soybean protein (Fuji Pro F, FUJI OIL CO., LTD.); test: cell-based or functional assay
[7] = biological target: wheat gluten (Viten, ROQUETTE Co.); test: cell-based or functional assay
[8] = biological target: casein (Wako Pure Chemical Industries, Ltd.); test: cell-based or functional assay

Binder	Relative activity (%) [1]	Relative activity (%) [2]	Relative activity (%) [3]	Relative activity (%) [4]	Relative activity (%) [5]	Ratio (Y82S/Wild-type) [6]	Ratio (Y82S/Wild-type) [7]	Ratio (Y82S/Wild-type) [8]	Ratio (Y82S/Wild-type) [1]	Ratio (Y82S/Wild-type) [4]
B1	100%	127%	2620%	61%	1020%					
B2	100%	531%	4270%	309%	701%	4.2	1.6	0.7	1	5
